{
  "source": "patent US6010856",
  "about": "“Assay systems and methods for measuring P38 map kinase, and modulators thereof” (The Scripps Research Institute)",
  "key": {"[1]": {"target": "MEF2C (UniProt Q06413-3 Q06413-3:1-441)", "sequence (Q06413 other isoform, or with tags, fused parts or gaps)": "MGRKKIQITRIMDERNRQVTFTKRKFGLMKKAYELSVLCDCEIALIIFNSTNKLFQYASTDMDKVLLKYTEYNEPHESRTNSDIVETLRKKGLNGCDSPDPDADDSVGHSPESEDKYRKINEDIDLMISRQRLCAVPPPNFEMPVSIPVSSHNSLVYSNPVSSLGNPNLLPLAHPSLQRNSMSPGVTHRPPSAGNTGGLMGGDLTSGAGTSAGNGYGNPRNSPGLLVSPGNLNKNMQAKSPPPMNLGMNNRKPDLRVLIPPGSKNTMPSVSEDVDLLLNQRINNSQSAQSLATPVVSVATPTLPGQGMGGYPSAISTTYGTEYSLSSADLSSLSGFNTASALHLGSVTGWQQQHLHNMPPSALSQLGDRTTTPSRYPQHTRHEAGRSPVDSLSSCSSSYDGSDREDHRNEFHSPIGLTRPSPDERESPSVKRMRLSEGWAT", "experiment": "EMSA; complexes B1 and B2", "details": "tags: in vitro translated from MEF2C cDNA; label: 32P", "description": "(§1) Members of the MEF2 family bind to conserved A/T-rich DNA sequences—CTA[A/T]_4TAG/A—found in the regulatory regions of many muscle-specific genes (Y. -T. Yu et al., Genes and Develop. 6, 1783 (1992). Binding of MEF2C to the consensus site can be detected by electrophoretic mobility-shift analysis (EMSA) (J. F. Martin et al., Proc. Natl. Acad. Sci. USA, 90, 5282 (1993); J. C. McDermott et al., Mol. Cell. Biol. 13, 2564 (1994); D. Leifer et al., Proc. Natl. Acad. Sci. USA 90, 11546 (1993)). To test whether the phosphorylation of MEF2C alters MEF2C binding to its consensus DNA binding site the mobility of the MEF2C-DNA probe complex formed by MEF2C before and after its treatment with wtp38 was compared (FIG. 3).\n(§2) Binding of MEF2C to oligonucleotides containing the MEF2 consensus site determined by electrophoretic mobility-shift assay (EMSA). The oligonucleotide probe was double-stranded ^32P-labeled oligonucleotide containing the MEF2 consensus binding site (Oligonucleotides sequence, MEF2C: GATCGCT CTAAAAATAACCCTGTCG (SEQ ID NO: 1); MEF2Cmut: […] (SEQ ID NO: 2)) and the positions of free probe (F) and of bound probe (B_1 and B_2) are indicated by arrows. […]"}, "[2]": {"target": "MEF2C phosphorylated by p38 (UniProt Q06413-3 Q06413-3:1-441)", "sequence (Q06413 other isoform, or with tags, fused parts or gaps)": "as above", "experiment": "EMSA; p38 phosphorylation did not reduce binding but decreased complex mobility", "details": "tags: in vitro translated then treated with recombinant p38; label: 32P", "description": "as §1, §2"}},
  "data": [
    {"binder": "MEF2C consensus site probe (dsDNA) DNA 1: GATCGCTCTAAAAATAACCCTGTCG DNA 2: CGACAGGGTTATTTTTAGAGCGATC", "values": [
      {"measurement": "binding result", "setting": "[1]", "result": "binds"},
      {"measurement": "binding result", "setting": "[2]", "result": "binds"}
    ]}
  ]
}
